In the supplement of paper PMC9112550, “Optimization of the antimicrobial peptide Bac7 by deep mutational scanning” (BMC Biology, 2022):

Test system: Escherichia coli TOP10
Assay: shrunken log2 fold change of peptide-encoding DNA abundance (4.5 h post-induction vs induction); higher = less antimicrobial activity (less host growth inhibition)
Conditions: time post-induction: 4.5 h; library: site-saturation at positions 5, 18, 19, 20
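Also: peptides expressed intracellularly from a pBAD plasmid library in pooled LB shake-flask culture, induced with 0.3% L-arabinose, DNA abundance read by NGS, three biological replicates, DESeq2 with apeglm shrinkage.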

Sequence | shrunken log2 fold change
RRIRARPPRLPRPRPRPAADPRP | 1.13
RRIRARPPRLPRPRPRPAAEPRP | 1.6
RRIRARPPRLPRPRPRPAAIPRP | 0.845
RRIRARPPRLPRPRPRPACPPRP | 0.255
RRIRARPPRLPRPRPRPADQPRP | 0.755
RRIRARPPRLPRPRPRPAEPPRP | 0.443
RRIRARPPRLPRPRPRPAFCPRP | 0.645
RRIRARPPRLPRPRPRPAIHPRP | -0.223
RRIRARPPRLPRPRPRPAKNPRP | 0.312
RRIRARPPRLPRPRPRPALDPRP | 0.756
RRIRARPPRLPRPRPRPALLPRP | 0.718
RRIRARPPRLPRPRPRPALQPRP | 0.354
RRIRARPPRLPRPRPRPANPPRP | 0.425
RRIRARPPRLPRPRPRPAPIPRP | 0.448
RRIRARPPRLPRPRPRPAPNPRP | 0.737
RRIRARPPRLPRPRPRPAQCPRP | 0.469
RRIRARPPRLPRPRPRPAQLPRP | 0.324
RRIRARPPRLPRPRPRPAQTPRP | 0.057
RRIRARPPRLPRPRPRPARIPRP | 0.169
RRIRARPPRLPRPRPRPARRPRP | 0.388
RRIRARPPRLPRPRPRPARTPRP | 0.584
RRIRARPPRLPRPRPRPASLPRP | 0.196
RRIRARPPRLPRPRPRPASSPRP | 0.16
RRIRARPPRLPRPRPRPATPPRP | 0.894
RRIRARPPRLPRPRPRPAWAPRP | 0.48
RRIRARPPRLPRPRPRPAWWPRP | 0.895
RRIRARPPRLPRPRPRPAYGPRP | 0.0552

Sequence | shrunken log2 fold change
RRIRARPPRLPRPRPRPAYQPRP | 0.106
RRIRARPPRLPRPRPRPAYVPRP | -0.118
RRIRARPPRLPRPRPRPCAKPRP | 0.984
RRIRARPPRLPRPRPRPCCQPRP | 0.102
RRIRARPPRLPRPRPRPCDRPRP | -0.00133
RRIRARPPRLPRPRPRPCFPPRP | -0.0469
RRIRARPPRLPRPRPRPCGYPRP | 0.0562
RRIRARPPRLPRPRPRPCKDPRP | 0.0511
RRIRARPPRLPRPRPRPCKWPRP | 0.146
RRIRARPPRLPRPRPRPCLCPRP | -0.495
RRIRARPPRLPRPRPRPCLDPRP | 0.313
RRIRARPPRLPRPRPRPCLHPRP | 1.24
RRIRARPPRLPRPRPRPCLNPRP | -0.424
RRIRARPPRLPRPRPRPCLTPRP | 0.158
RRIRARPPRLPRPRPRPCMDPRP | 0.0143
RRIRARPPRLPRPRPRPCNNPRP | -0.352
RRIRARPPRLPRPRPRPCQGPRP | -0.11
RRIRARPPRLPRPRPRPCRAPRP | 0.261
RRIRARPPRLPRPRPRPCTLPRP | 0.151
RRIRARPPRLPRPRPRPCVLPRP | -0.0267
RRIRARPPRLPRPRPRPCWRPRP | -0.0211
RRIRARPPRLPRPRPRPCWYPRP | -0.16
RRIRARPPRLPRPRPRPCYAPRP | -0.26
RRIRARPPRLPRPRPRPCYEPRP | -0.109
RRIRARPPRLPRPRPRPCYTPRP | -0.486
RRIRARPPRLPRPRPRPDAPPRP | 0.942
RRIRARPPRLPRPRPRPDCHPRP | 1.05
